Test results published in patent US20250049896A1 (Regeneron, published 2025).
Substitutions are numbered along the chain they refer to.

B1: 12845B (antibody, human IgG1, kappa, V domains shown)
VH: EVQLVESGGGLVQPGGSLRLSCAASGFTVSNYEMNWVRQAPGKGLEWVSYISSSTSNIYYADSVKGRFTISRDNAENSLYLQMNSLRVEDTAVYYCVRDGIVVVPVGRGYYYYGLDVWGQGTTVTVSS
VL: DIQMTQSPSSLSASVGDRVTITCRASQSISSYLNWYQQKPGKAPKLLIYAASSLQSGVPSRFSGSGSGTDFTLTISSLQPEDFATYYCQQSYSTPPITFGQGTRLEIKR
notes: Tested as bivalent human IgG1 from CHO primary supernatant; also called H1H12845B; REGN17513
B2: 69326 (antibody, human IgG1, kappa, V domains shown)
VH: EVQLVESGGGLVQPGGSLRLSCAVSGFIFSSYEMNWVRQAPGKGLEWVSYISSSGSTIFYADSVKGRFTISRDNAKNSLYLQMNSLRAEDTAVYYCVSGVVLFDVWGQGTMVTVSS
VL: EIVMTQSPATLSVSPGERATLSCRASQSVSSNFAWYQQKPGQAPRLLIYSASSRATGIPVRFSGSGSGTEFTLTISSLQSEDFAVYYCQQYNIWPRTFGQGTKVEIKR
notes: Tested as bivalent human IgG1 from CHO primary supernatant
B3: 12841B (antibody, human IgG1, kappa, V domains shown)
VH: EVQLVESGGGLVQPGGSLRLSCAASGFTFSNYWMNWVRQAPGKGLEWVANIKEDGGKKLYVDSVKGRFTISRDNAKNSLFLQMNSLRAEDTAVYYCAREDTTLVVDYYYYGMDVWGQGTTVTVSS
VL: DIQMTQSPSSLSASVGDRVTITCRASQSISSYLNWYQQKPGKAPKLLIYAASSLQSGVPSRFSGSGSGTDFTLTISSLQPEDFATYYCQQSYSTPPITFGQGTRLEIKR
notes: Tested as bivalent human IgG1 from CHO primary supernatant; also called H1H12841B; REGN17511
B4: 12839B (antibody, human IgG1, kappa, V domains shown)
VH: QVQLVESGGGVVQPGRSLRLSCAASGFPFSNYVMYWVRQAPGKGLEWVALIFFDGKKNYHADSVKGRFTITRDNSKNMLYLQMNSLRPEDAAVYYCAKIHCPNGVCYKGYYGMDVWGQGTTVTVSS
VL: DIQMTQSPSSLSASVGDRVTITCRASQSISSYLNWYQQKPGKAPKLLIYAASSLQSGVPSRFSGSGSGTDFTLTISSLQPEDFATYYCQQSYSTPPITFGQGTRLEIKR
notes: Tested as bivalent human IgG1 from CHO primary supernatant; also called H1H12839B; REGN17510
B5: 12834B (antibody, human IgG1, kappa, V domains shown)
VH: QVQLVQSGAEVKKPGASVKVSCKASGYTFTSYGISWVRQAPGQGLEWMGWISVYHGNTNYAQKFQGRVTMTTDTSTSTAYMELRSLRSDDTAVYYCAREGYYDFWSGYYPFDYWGQGTLVTVSS
VL: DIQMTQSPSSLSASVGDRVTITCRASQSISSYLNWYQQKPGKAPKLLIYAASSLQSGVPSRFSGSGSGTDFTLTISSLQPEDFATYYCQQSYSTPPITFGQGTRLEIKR
notes: as for B2
B6: 69307 (antibody, human IgG1, kappa, V domains shown)
VH: EVQLVESGGGLVQPGGSLRLSCTASGFTFSNYWMTWVRQAPGKGLEWVANIKEDGSEKEYVDSVKGRFTISRDNAKNSLYLQMNSLRGEDTAVYYCARDGEQLVDYYYYYVMDVWGQGTTVTVSS
VL: DIQMTQSPSSVSASVGDRVTITCRASQGISSWLAWYQQKPGKAPKLLIYAASSLQSGVPSRFSGSGSGTDFTLTISSLQPEDFATYYCQKADSLPYAFGQGTKLEIKR
notes: as for B2
B7: 12812B (antibody, human IgG1, kappa, V domains shown)
VH: QVQLVQSGAEVKKPGSSVRVSCKASRGTFSSYAISWVRQAPGQGLEWMGGIIPIFGTANYAQKFLARVTITADESTSTAYMELSSLRSEDTAVYYCAREKGWNYFDYWGQGTLVTVSS
VL: B6 VL with S9P, K90Q, D92N, L94F, Y96R, A97T, L104V
notes: as for B2
B8: 69329 (antibody, human IgG1, kappa, V domains shown)
VH: B6 VH with T23A, E59D
VL: B6 VL with D92N, L94F, A97T
notes: as for B2
B9: 31863B (antibody, human IgG1, kappa, V domains shown)
VH: EVQLVESGGGLVQPGGSLRLSCAASGFTFNSYAMTWVRQAPGKGLEWVSFIGGSTGNTYYAGSVKGRFTISSDNSKKTLYLQMNSLRAEDTAVYYCAKGGAARRMEYFQHWGQGTLVTVSS
VL: DIQMTQSPSSLSASIGDRVTITCRASQGISNYLAWYQQKPGKVPKLLIYAASTLQSGVPSRFSGSGSGTDFTLTISSLQPEDVATYYCQNHNSVPLTFGGGTKVEIKR
notes: as for B2
B10: 12795B (antibody, human IgG1, kappa, V domains shown)
VH: EVQLVESGGGLVQPGGSLRLSCATSGFTFTSYDMKWVRQAPGLGLEWVSAISGSGGNTYYADSVKGRFTISRDNSRNTLYLQMNSLRAEDTAVYYCTRSHDFGAFDYFDYWGQGTLVTVSS
VL: DIQMTQSPSSLSASVGDRVTITCRASQGIRDHFGWYQQKPGKAPKRLIYAASSLHSGVPSRFSGSGSGTEFTLTISSLQPEDFATYYCLQYDTYPLTFGGGTKVEIKR
notes: as for B2
B11: 31863B anti-human TfR IgG1 monoclonal antibody (antibody, V domains shown)
VH: B9 VH
VL: B9 VL
notes: Tested as bivalent IgG1 from CHO primary supernatant
B12: 69331 anti-human TfR IgG1 monoclonal antibody (antibody, V domains shown)
VH: QVQLVESGGGVVQPGRSLRLSCIASGFTFSVYGIHWVRQAPGKGLEWMAVISHDGNIKHYADSVKGRFTISRDNSKNTLYLQINSLRTEDTAVYYCAKDTWNSLDTFDIWGQGTMVTVSS
VL: B9 VL with M4L, I15V, R24W, N31S, V43A, D70E, V83F, N90Q, H91L, V94Y
notes: as for B11
B13: 12795B anti-human TfR IgG1 monoclonal antibody (antibody, V domains shown)
VH: B10 VH
VL: B10 VL
notes: as for B11
B14: 69305 (antibody, human IgG1, kappa, V domains shown)
VH: QVQLVESGGGVVQPGRSLRLSCAASGFTFSSYGMHWVRQAPGKGLEWVAVIWYDGSNKYYADSVKGRFTISRDISKNTLYLQMNSLRAEDTAVYYCAGQLDLFFDYWGQGTLVTVSS
VL: DIQMTQSPSSLSASVGDRVTITCRASQSIDRYLNWYRQKPGKAPKLLIYTTSSLQSGVPSRFSGSGSGTDFTLTLSSLQPEDFATYYCQQSYSPPLTFGGGTKVEIKR
notes: as for B2

molecular target: T1, mf TFRC ecto-mmh (REGN2054), monomeric monkey (cyno) Tfrc ectodomain with C-terminal myc-myc-hexahistidine tag (monkey (cyno), Macaca fascicularis, UniProt H9EXL1 89-760); test: SPR (Biacore), mAb from CHO supernatant captured on anti-human Fc, 100 nM mfTfR-mmh injected, 25 C
T1 construct: range 89-760; also called mfTfR-mmh; mfTFR-mmh
Procedure: (§1) Biacore binding kinetics assays were conducted for the interaction of 32 anti-human TfR IgG1 monoclonal antibodies from CHO supernatants with TfR reagents at 25° C.
(§2) Equilibrium dissociation constants (KD) for the interaction of anti-TfR monoclonal antibodies with human and fascicularis monkey TfR ecto domain recombinant proteins were determined using a real-time surface plasmon resonance (SPR) based Biacore S200 biosensor. All binding studies were performed in 10 mM HEPES, 150 mM NaCl, 3 mM EDTA, and 0.05% v/v surfactant Tween-20, pH 7.4 (HBS-EP) running buffer at 37° C. The Biacore CM5 sensor surface was first derivatized by amine coupling with a monoclonal mouse anti-human Fc antibody (REGN2567) followed by a step to capture anti-TfR monoclonal antibodies in CHO conditioned media. […] The dissociation of TfR bound to anti-TfR monoclonal antibodies was monitored for 3 minutes in HBS-EP running buffer. At the end of each cycle, the anti-TfR monoclonal antibodies capture surface was regenerated using a 12-sec injection of 20 mM H₃PO₄. The association rate (ka) and dissociation rate (kd) were determined by fitting the real-time binding sensorgrams to a 1:1 binding model with mass transport limitation using Scrubber 2.0 c software. The dissociation equilibrium constant (KD) and dissociative half-life (t½) were calculated from the kinetic rate constants as: […]

T1 sequence (chain, as listed by the source): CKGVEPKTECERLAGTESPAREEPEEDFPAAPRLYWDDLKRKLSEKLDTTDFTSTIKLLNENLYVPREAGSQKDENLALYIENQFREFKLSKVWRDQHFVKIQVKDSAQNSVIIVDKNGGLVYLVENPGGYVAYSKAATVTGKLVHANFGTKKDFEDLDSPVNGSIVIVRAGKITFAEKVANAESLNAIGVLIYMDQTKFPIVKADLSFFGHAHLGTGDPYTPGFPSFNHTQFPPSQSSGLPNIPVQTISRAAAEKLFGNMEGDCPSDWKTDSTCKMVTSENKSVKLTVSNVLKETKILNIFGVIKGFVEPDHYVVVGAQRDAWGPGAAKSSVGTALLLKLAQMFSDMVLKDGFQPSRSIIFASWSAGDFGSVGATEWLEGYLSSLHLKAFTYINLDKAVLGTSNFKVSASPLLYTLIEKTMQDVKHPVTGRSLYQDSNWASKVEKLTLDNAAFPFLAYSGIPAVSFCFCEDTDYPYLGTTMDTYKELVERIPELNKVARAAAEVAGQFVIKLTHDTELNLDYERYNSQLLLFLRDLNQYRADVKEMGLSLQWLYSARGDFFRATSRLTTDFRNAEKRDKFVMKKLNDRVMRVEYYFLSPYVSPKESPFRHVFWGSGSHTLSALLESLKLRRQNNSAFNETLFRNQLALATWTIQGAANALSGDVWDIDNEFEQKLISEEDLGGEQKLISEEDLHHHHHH

binding result | Binder
no binding (tested: 100 nM) | B1
no binding (tested: 100 nM) | B2
no binding (tested: 100 nM) | B3
no binding (tested: 100 nM) | B4
no binding (tested: 100 nM) | B5
no binding (tested: 100 nM) | B6
no binding (tested: 100 nM) | B7
no binding (tested: 100 nM) | B8

molecular target: T2, hmm.hTfRC (REGN2431), human transferrin receptor extracellular domain with hexahistidine-myc-myc tag (human, UniProt P02786 89-760); test: SPR (Biacore), mAb captured on anti-human Fc, 100 nM hTFR-mmh, 25 C; kd fixed at 1.00E-05
T2 construct: Monomeric recombinant protein, 79210 g/mol; also called hTFR-mmh; His-myc-myc-hTFRC ecto
Procedure: as §2, with “All binding studies were performed in 10 mM HEPES, 150 mM NaCl, 3 mM EDTA, and 0.05% v/v surfactant Tween-20, pH 7.4 (HBS-EP) running buffer at 37° C.” left out

T2 sequence (P02786 other isoform, or with tags, fused parts or gaps): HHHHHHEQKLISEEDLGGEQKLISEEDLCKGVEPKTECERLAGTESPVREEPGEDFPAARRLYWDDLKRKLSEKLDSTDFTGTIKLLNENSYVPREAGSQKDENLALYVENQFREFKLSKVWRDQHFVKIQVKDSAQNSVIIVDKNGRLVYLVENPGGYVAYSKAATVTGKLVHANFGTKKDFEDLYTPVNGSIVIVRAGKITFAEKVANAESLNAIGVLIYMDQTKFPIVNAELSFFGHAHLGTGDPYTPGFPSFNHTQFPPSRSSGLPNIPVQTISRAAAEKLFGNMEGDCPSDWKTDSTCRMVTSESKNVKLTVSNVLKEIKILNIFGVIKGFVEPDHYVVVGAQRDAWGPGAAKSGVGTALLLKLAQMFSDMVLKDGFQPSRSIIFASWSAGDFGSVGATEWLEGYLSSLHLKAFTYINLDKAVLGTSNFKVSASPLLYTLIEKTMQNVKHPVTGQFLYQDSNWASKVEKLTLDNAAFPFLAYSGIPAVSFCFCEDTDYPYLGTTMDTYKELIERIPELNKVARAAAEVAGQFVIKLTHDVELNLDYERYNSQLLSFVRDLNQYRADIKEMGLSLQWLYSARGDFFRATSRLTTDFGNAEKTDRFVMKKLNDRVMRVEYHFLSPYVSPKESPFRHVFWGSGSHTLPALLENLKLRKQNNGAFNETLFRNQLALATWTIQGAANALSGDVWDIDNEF

Kd [nM] | Binder
≤ 0.0656 | B9
≤ 0.0823 | B10

molecular target: T3, REGN2431 (hmm.hTfRC); monomeric human Tfrc ectodomain, amino acids C89-F760, with N-terminal … (human, UniProt P02786 89-760); test: SPR (Biacore), mAb from CHO supernatant captured on anti-human Fc, 100 nM hTfR-mmh injected, 25 C
T3 construct: also called hTfR-mmh; hTFR-mmh
Procedure: as §1, §2

T3 sequence (P02786 other isoform, or with tags, fused parts or gaps): as above

Kd [nM] | Binder
0.0656 | B11
41 | B12

molecular target: T4, REGN2054 (mf TFRC ecto-mmh); monomeric monkey (cyno) Tfrc ectodomain, amino acids C89-F760, with C-terminal … (cynomolgus monkey (Macaca fascicularis), UniProt H9EXL1 89-760 (rhesus entry)); test: SPR (Biacore), mAb from CHO supernatant captured on anti-human Fc, 100 nM mfTFR-mmh injected, 25 C
T4 construct: range 89-760; also called mfTFR-mmh; mfTfR-mmh
Procedure: as §1, §2

T4 sequence (chain, as listed by the source): as the sequence (chain, as listed by the source) above

Kd [nM] | Binder
20.5 | B12
1.16 | B13

molecular target: T1, mf TFRC ecto-mmh (REGN2054), monomeric …; test: SPR (Biacore), mAb captured on anti-human Fc, 100 nM mfTfR-mmh, 25 C
Procedure: as §1, §2

100 nM Ag Bound (RU) | Kd [nM] | koff [s⁻¹] | kon [M⁻¹ s⁻¹] | t½ [h] | Binder
145 | 18.3 | 0.00298 | 163000 | 0.065 | B9
13 | – | – | – | – | B1
364 | 1.16 | 7.13e-05 | 61000 | 2.7 | B10
9 | – | – | – | – | B2
4 | – | – | – | – | B3
11 | – | – | – | – | B4
-7 | – | – | – | – | B14
5 | – | – | – | – | B5
3 | – | – | – | – | B6
1 | – | – | – | – | B7
8 | – | – | – | – | B8

molecular target: T2, hmm.hTfRC (REGN2431), human transferrin …; test: SPR (Biacore), mAb from CHO supernatant captured on anti-human Fc, 100 nM hTFR-mmh injected, 25 C

binding result | Binder
no binding (tested: 100 nM) | B14

molecular target: T2, hmm.hTfRC (REGN2431), human transferrin …; test: SPR (Biacore), mAb captured on anti-human Fc, 100 nM hTFR-mmh, 25 C
Procedure: as §1, §2

100 nM Ag Bound (RU) | koff [s⁻¹] | kon [M⁻¹ s⁻¹] | t½ [h] | Kd [nM] | Binder
1080 | < 1e-05 | 152000 | > 19.2 | – | B9
1100 | 0.000199 | 168000 | 0.965 | 1.18 | B1
883 | < 1e-05 | 122000 | > 19.2 | – | B10
680 | 0.000256 | 115000 | 0.752 | 2.22 | B2
1150 | 0.000116 | 173000 | 1.66 | 0.67 | B3
660 | 5.33e-05 | 118000 | 3.62 | 0.448 | B4
6 | – | – | – | – | B14
11 | 0.00439 | 600000 | 0.0433 | 7 | B5
1280 | 4.26e-05 | 190000 | 4.52 | 0.226 | B6
11 | 0.00131 | 433000 | 0.147 | 3.02 | B7
1100 | 0.000186 | 192000 | 1.04 | 0.97 | B8
